Assay: soluble on expression in E. coli; label from the status in PepcDB or PDB records
In the case of “LSPSLPSVEALRNVQLQIPLKVYSEDGKLISEFGEMRRTPIRFADIPQDFIHALLSAEDDNFANHYGVDVKSLMRAAAQLLKSGHIQTGGSTITMQVAKNYFLTNERSFSRKINEILLALQIERQLTKDEILELYVNKIYLGNRAYGIEAAAQVYYGKPIKDLSLAEMAMIAGLPKAPSRYNPLVNPTRSTERRNWILERMLKLGFIDQQRYQAAVEEPINASYHVQTPELNAPYIAEMARAEMVGRYGSEAYTEGYKVITTVRSDLQNAASQSVRDGLIDYDQRHGYRGPETRLPGQTRDAWLKHLGQQRSIGGLEPAIVTQVEKSGIMVMTRDGKEEAVTWDSMKWARPFLSNNSMGPMPRQPADVAQAGDQIRVQRQEDGTLRFVQIPAAQSALISLDPKDGAIRSLVGGFSFEQSNYNRAIQAKRQPGSSFKPFIYSAALDNGFTAASLVNDAPIVFVDEYLDKVWRPKNDTNTFLGPIPLREALYKSRNMVSIRVLQGLGIERAISYITKFGFQRDELPRNFSLALGTATVTPMEIAGAWSVFANGGYKVNPYVIERIESRDGQVLYQANPPRVPVEEQVAADAEDAGNPGDPEHPESAEGEGSIEAQQVAAKAQTTFEPTPAERIIDARTAYIMTSMLQDVIKRGTGRRALALKRTDLAGKTGTTNDSKDGWFSGYNSDYVTSVWVGFDQPETLGRREYGGTVALPIWIRYMGFALKDKPMHTMAEPPGIVSLRIDPVTGRSAAPGTPGAYFEMFKNEDTPPSVNELPPGSFPGSPLPDDEGAPIDL”, the “soluble on expression in E. coli” value is reported as “not soluble”. In the case of “MGSDKIHHHHHHMNPPPFRLFLAIRSLHKGGAERQMVELAKGLDKERFALTLCTLYGGGELERELKESGVEIFCLHKRGRSDFSFLRRYRTLIQEQNPKAIYSFLPEMNLFSLMASRFLKRSPKILWGFRSSDMDVKSYGWQSRLYYAAQKLLSPFASKIITNSHHSLAYHKHIGYCMKRAQVIHNGIDTKRFSPSLELRESFRQRYHLKDKIAIGIAARMDIAKGYPYLAKAAKIILSRYPKVLFFAAGEIDPLLQKECLEILGQEGERFIWLGGVERMEEVYNGWDILVSSSLTESFSNSIAEGMACALAPIATDVGDTSVILGEVGTLIPPKDSEMLAQKLALMIESDFKTEGERARERIVTLFSLEAMIQNSTKAILTCAES”, the “soluble on expression in E. coli” value is reported as “not soluble”. In the case of “MGSDKIHHHHHHMWDWIGKLDELRRSNQLAVLVTVTKSSGSTPRKHGAKMIVLPDGTFYGTVGGGTPEYYALEDARACFETMQSTTSSVPLKQRGEFPACGGTMEFYMEVINDNPVLHLFGAGHIGQSLCQILDGTPFRIHLIDEREEWINAPNLPGSVIRHQRHYSDFIEKAIWCDKRTFVAIQTFSGTLDQQVLEEVLPNPTRYVGMIGSKAKWAKVRSNLEEKGLDLSAVRCPIGHDNGGNSPREIAISIASQLLSTYYGRE”, the “soluble on expression in E. coli” value is reported as “not soluble”. In the case of “QLVLVKRSTPPVAVIWSAPDCPYCRKLEKTLEQENASVYVVPVGVAENGFRQAARVYCADDPSQAWRKVMQGSEINGRAKTSCQYPRDMLNDIGFFLGMGRMATPIVVFADGSTVIGWNDQNAWMLLRKKISEQIFFND”, the “soluble on expression in E. coli” value is reported as “not soluble”. With “NEVRFVVFHAVDTSEKQILVRSLEEAENKFAKLTQLLPDGLLLIEDDTIISANPASARLLGLNSPHELLGEELSRLFIDENTKKVFSHRLSTLISDKPFVCLTSARCGFERKVQLHADSTAILGSESQIILIQDA” the “soluble on expression in E. coli” value was “not soluble”. In the case of “MRRKETLQETPLTYQELASKILPELHLLAQEAGIEGYKRMKKDQLIMALLERQTQGEGLRLVKGYLEISQDGYGFLTENLHNLESRVAIVSAGLIKQYALRAGDYVVGQARPPRENERYATLLKVEAVNNLDPEAAKNRPRFDELTPQFPDRQIRLETTPDELSTRVIDLLAPIGRGQRGLIVAPPKAGKTTLLKKIANAVLKNEPDIKVIVLLIDERPEEVTDFRESVQGAEVIASTFDEPPQNHIRVAEFVHERAKRIVEEGGHVMILLDSITRLARANNLVTPPTGRTLSGGLDSAALYFPKRFLGAARNIRGGGSLTILATALVETGSRMDDVIFEEFKGTGNMELHLSRRLEERRIFPAIDILKSGTRREELLLGEEVTHKMWLLRKVLADMDPAEAMEMLLARLARTKNNKEFLASLAAR”, the “soluble on expression in E. coli” value is reported as “soluble”. For “MAHHHHHHMSIFGVSSYFLWTQKGQTVLPLVRGSGFVMSFQQLNTFYSYHVMSAAHVTCPVKHRKLYGDTIGLKAIGERHISTRLLIPDEATHRVQSSFELEFRQQYMPNTDVASLRLCKEEQFKKAMLPPQDSGTGTASPLQVILPDLDRIEEGDELILCGVHTEEERANPNDDGLVLNPMRLIATCKAALLSLDYGTVLLASIDGPAEEARESGSGSAASASRPVTVPPLPLSMCGGPVLRRSSGRCVGVIAARVMANAPPRDPQSTSLYQDPYLDISEHIALHAHWPLDVAFVPIGEFYDPLRRCEM”, the “soluble on expression in E. coli” value was “not soluble”. For “MSLESSDVPRELIESIKDVIGRKIKISVKKKVKLEVKGDKVENKVLVLTSCRAFLVTARIPTKLELTFSYLEIHGVVCSKSAQMIVETEKCSISMKMASPEDVSEVLAHIGTCLRKIFPGLSPVRIMKKVSMEPSERLASLQALWDSQTVAEQGPCGGFSQMYACVCDWLGFSYREEVQWDVDTIYLTQDTRELNLQDFSHLDHRDLIPIIAALEYNQWFTKLSSKDLKLSTDVCEQILRVVSRSNRLEELVLENAGLRTDFAQKLASALAHNPNSGLHTINLAGNPLEDRGVSSLSIQFAKLPKGLKHLNLSKTSLSPKGVNSLSQSLSANPLTASTLVHLDLSGNVLRGDDLSHMYNFLAQPNAIVHLDLSNTECSLDMVCGALLRGCLQYLAVLNLSRTVFSHRKGKEVPPSFKQFFSSSLALMHINLSGTKLSPEPLKALLLGLACNHNLKGVSLDLSNCELRSGGAQVLEGCIAEIHNITSLDISDNGLESDLSTLIVWLSKNRSIQHLALGKNFNNMKSKNLTPVLDNLVQMIQDEESPLQSLSLADSKLKTEVTIIINALGSNTSLTKVDISGNGMGDMGAKMLAKALQINTKLRTVIWDKNNITAQGFQDIAVAMEKNYTLRFMPIPMYDASQALKTNPEKTEDALQKIENYLLRNHETRKEGHHHHHH”, the “soluble on expression in E. coli” value was “soluble”. For “MASTIYTCKECGSDLNLNPNDLFPPDFYFEAGNKGTLSFAAVDAEKFRFEKEDKIMPFFETLNYWGIQRKRTKIKCTSCNHLIGYIYDDGPPLTGGIGQYGFGPSQVIPRAPRYRFKTKARQDGWQYGGLTAFWN”, the “soluble on expression in E. coli” value was “not soluble”. With “MAHHHHHHMNRHNKFYAEVADELEGEDYYDDDDDDYNNDEEYEEEGEYDEAAYETTASAASPEPVHMPKSTTQATAPAAAAVRVNPYTTISPQVDDDYELLDVLLPQLHALWKTNAPTMLPLSEGEAVTALRASNYDVEPAFLQLKEKRDEERSKRGGGVLRVAAAAGPAKRASTPPTVEPPEPGGEAASDNEGNSASPSASSGRTTITLRGWKGASQRRTKQMLEMEPDKEKPDCTFVIAGHVDAGKSTTLGHLLLLLGRVSIQDVERNEKADRTHHKDSFKYAWLLDQCEEERRRGVTIDSGSFCFETEHRRVHILDAPGHKDFVLNMISSATQADAALLVVTATNSEFETGLHHGTKSHLLVLKTLGVGSIVVAVNKMDAVAYSQERYDYVVRELQLLLKQTRIPEEAIIGFCPISGMTGVNITQRGAKETPWYHDLSLIEMIDRCPLESRLVNSPLRLSLQDVQGTTLYAKVESGRLFTGDMVHFVPSEVRVTIKSIQKPTVAGPVLVAFAGETVEISTNSSVTGLYPGCVGCEPNLLIRSSTDFEAHIQTFRTLTKAILPGASFTIIVHALTVRVHVAALISKMDSKTGNWSKGMVKCVPPAAQAMMLFRAESPVALEPATECRALGRFVLQQDGETVAGGLVTRVVDKA” the “soluble on expression in E. coli” value was “not soluble”. For “SPWSQDRVEHLYEQVAAENSVDLLKKGQFQGTPDGSSVVFIDDIKDSTLSNVFVAQMRPRDSVLPSVMFSSSGEVKELSDGRQVITMQEGTRYEGVPTRVEYMITKFDEYEGVIGQREVKQKGRDWEAYPTADLIGHPDPEAQAELQWR”, the “soluble on expression in E. coli” value was “not soluble”. With “MNVVRYTPWPGQAALQNEIKQVFDRFFEHNGDTDESAVVTAQWVPRVDIKEEPNQFVLYADLPGIDPADIEVQMDKGILSIKGERKTESSSQTEHFSRIERRYGSFHRRFALPDSADADGITASGSHGVLRILIPKQAATTPRRIQVGNAVSSDVALQSMLEHHHHHH” the “soluble on expression in E. coli” value was “soluble”. For “MGHHHHHHSHMRLLKSELGSFITDYFQNQLLAKGLFFVEEKIKLCEGENRIEVLAEVWDHFFTETLPTLQAIFYPVQSVHEPTGPSESYLQLEELVKQVVSPFLGISGDRSFSGPTYTLARRHSRVRPKVTVLNYASPITAVSRPLNEMVLTPLTEQEGEAYLEKCGSVRRHTVANAHSDIQLLAMATMMHSGLGEEASSENKCLLLPPSFPPPHRQCSSEPNITDNPDGLEEGARGSQEGSELNCASLS”, the “soluble on expression in E. coli” value was “not soluble”. In the case of “AYSELQMLSPSERQCVETVVNMGYSYECVLRAMKKKGENIEQILDYLFAH”, the “soluble on expression in E. coli” value is reported as “soluble”. For “MSLTDPNRLTLFYSPQTRATGMRVLLEELGAPYDLHVLNMKAGEQRQPAYLAINPLGKVPAIRRGDALVTEQVAITIYLADLFPGAGLAPSLDDPLRGPYLRWIAYYGSTFEPAVVDRSMQREPGPAEMSPYADYDTMLGALEAQLATGPYLLGDRFTAADVLWGIALNWTLNFGLVPKKDAFVRYAELVTARPAFRRVDLADAEMAAEGHHHHHH”, the “soluble on expression in E. coli” value was “soluble”. With “MGSDKIHHHHHHMVSMTKLVELKNSEASAVVLPRHGAGLASFDFLWRGSRLPAFRPLITEPQHEHDLALYLLAPFSNRIGGGGFAWNGRRHDLRPNVEGEPCPLHGDAWQQHWTVMDQGRTHVTLQLLSRSIPPFAYDAEITWTLDGPSLSGALTLIHRGEDPMPYGGGFHPWLVRDSDTQLHARADGWWSEDSLHLPKRWHALVDNDSSGFGAPRSLPSNFFNTVYTGWHGRADIWWPGRGLALQIEAQAPLNRYIVYSPGAEADFFCFEPVSHDVNAHNAPSPLKHGLVELAEGESLHLSARFTATLR” the “soluble on expression in E. coli” value was “not soluble”. With “MTPAQLTGTTDSHLQSTMVGQKAFLMHPDVANDLLNMIEAAKKAGFKMEIASGFRDFSRQRAIWNGKYEGELPILDSNSQPLNKAALSDEEKLKAILRWSALPGGSRHHWGCDFDVYARNLLPPDTKLQLEPWEYLEGHQLAFYCWLKDHIDEFGFFFPYLQDLGGVAIEPWHISHKAIGQQCAAQLNAEMLKDELVRQNQQHNIAGLESILNNLDSILSTYIRNITPPPEAL” the “soluble on expression in E. coli” value was “not soluble”. In the case of “MGSDKIHHHHHHMKAQSALSVKEANFKAMTTFIYTQGSATKQMFEHELGLSLPTITQNLRAMEADGLIVKGEMQKSTGGRKAQIYEFAAHSSVAIGVRIQTTRITAIAIDLNGKSVATRQRTLPYRNNDAYYQRMNDIINGFAQELAKQGSTVLGVAFCMQGIVSADGQSITFGKIMNNTGLKLSELSHGLNYPSLMIHDSDASAMAELWFDHNLKDAVCIYLERRPGGAVIVDGSLYQGPNQCNGSIEHMTLIPGGNTCYCGQQGCMDTYCSPETLMEDGESLPGFFSVLEQGEQEHRKRFSQWLDYVALAVTNIRSVLAGDVIISGEAAQYLDDDDMAGLRERVVEHTPFGTTDFTLRKGMALDHQDIIGAALRFVEPYVRELCDM”, the “soluble on expression in E. coli” value is reported as “not soluble”. With “MLEAKNLTCIRDDRCLFQQLSFCIAPGEIVQIEGPNGAGKTSLLRILAGLAEADEGQVNWRDKNIRRDRAKYHQDLLFLGHQPGIKSVLTPFENLLFYQSVFQKVDSAAIWQALAQVGLVGYEDLPVSQLSAGQQRRVALARLWLSPAPLWILDEPLTAIDKQGVSTLLALFVQHAAKGGMVLLTTHQDLGAVSHNVRKICLANTQEKSCLSACCAVN” the “soluble on expression in E. coli” value was “not soluble”. For “MGHHHHHHSHMGFGSDLKNSHEAVLKLQDWELRLLETVKKFMALRIKSDKEYASTLQNLCNQVDKESTVQMNYVSNVSKSWLLMIQQTEQLSRIMKTHAEDLNSGPLHRLTMMIKDKQQVKKSYIGVHQQIEAEMIKVTKTELEKLKCSYRQLIKEMNSAKEKYKEALAKG”, the “soluble on expression in E. coli” value was “soluble”.

— the DeepSol protein solubility set
